T1: human IL-2Rβ (human, UniProt P14784 27-239)
T1 sequence (looked up): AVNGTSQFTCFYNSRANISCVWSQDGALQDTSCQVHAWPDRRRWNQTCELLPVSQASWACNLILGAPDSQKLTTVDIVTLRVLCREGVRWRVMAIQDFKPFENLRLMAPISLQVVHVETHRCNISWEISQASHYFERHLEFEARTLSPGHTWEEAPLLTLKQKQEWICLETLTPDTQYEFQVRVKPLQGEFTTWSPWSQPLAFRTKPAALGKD


Assays:
[1] = biological target: T2, human IL-21R expressed on cells (human, UniProt Q9HBE5 20-538); test: cell-based or functional assay
[2] = biological target: murine IL-21R expressed on cells (murine, UniProt Q9JHX3 20-529); test: cell-based or functional assay
[3] = biological target: T2, human IL-21R expressed on cells; test: cell-based or functional assay; remark: listed apart in the source
[4] = biological target: T3, human IL-21R extracellular domain His-Flag fusion protein (human, UniProt Q9HBE5 20-232); test: SPR, Ab captured on anti-human IgG, replicate experiment
T3 construct: Biotinylated in the HTRF screen; also called hIL-21R-H/F; human IL-21R-H/F
Procedure: The kinetics of binding of anti-IL-21R antibodies to human and murine IL-21R-H/F was tested on a BIACORE™ surface plasmon resonance instrument. Anti-human IgG antibodies (Invitrogen Corporation) were immobilized onto a research-grade carboxy-methyl-dextran chip (CM5) using standard amine coupling. The surface was activated with EDC/NHS for 7 min at a flow of 20 μl/min. The first flow cell was used as a reference surface to correct for bulk refractive index, matrix effects, and nonspecific binding. The anti-human-Fc antibody was diluted to 20 μg/ml in 10 mM sodium acetate buffer (pH 5.0), and 2950-3405 resonance units (RU) were captured on each of the four flow cells. Remaining activated groups were blocked with 1.0 M ethanolamine-HCl (pH 8.5).
Anti-IL-21R antibodies were diluted to 0.1-0.2 μg/ml in HBS/EP buffer supplemented with 0.2% bovine serum albumin and loaded onto the BIACORE™ chip. Following a brief washing period, solutions of 0-100 nM human IL-21R-H/F or 10-500 nM murine IL-21R-H/F were injected over the chip at a flow rate of 50 μl/min. The association phase was run for 3 min for human and murine IL-21R kinetics, and the dissociation phase was monitored for 15 min for hIL-21R and for 5 min for mIL-21R, followed by two 10 μl injections and one 30 μl injection of glycine (pH 1.5), to regenerate a fully active capturing surface. All binding experiments were done at 25° C. in HBS/EP buffer, and the sample rack was kept at 15° C. Blank and buffer effects were subtracted for each sensorgram using double referencing.

human IL-2Rβ = biological target: T1, human IL-2Rβ; test: BIACORE: antibody captured on anti-human IgG; 50 nM analyte injected
Procedure: (§1) The specificity of binding of a subset of transiently expressed anti-IL-21R binding proteins (here antibodies) was tested on a BIACORE™ 2000 surface plasmon resonance instrument. Anti-human-IgG, anti-murine immunoglobulin antibodies, and murine IL-21R-H/F were immobilized onto a research-grade carboxymethyl-dextran chip (CM5) using standard amine coupling. The sensor chip surface was activated with EDC/NHS for 7 min at a flow rate of 20 μl/min. The first flow cell was used as reference surface to correct for bulk refractive index, matrix effects, and nonspecific binding. […] Remaining activated groups were blocked with 1.0 M ethanolamine (pH 8.0). The molecular weights of the anti-human IgG and the anti-murine IgG were both 150 kD, and the molecular weight of the IL-21R monomer was 27 kD.
(§2) Conditioned media containing anti-IL-21R antibodies and antibody controls (murine anti-human IL-2Rβ and murine anti-human IL-4R(R&D Systems, Minneapolis, Minn.); human anti-human IL-13 (Wyeth, Cambridge, Mass.)) were diluted in HBS/EP buffer supplemented with 0.2% bovine serum and injected onto all four flow cells of the BIACORE™ chip, capturing 500-700 (RU) of antibody on the species-appropriate capture antibody. Following a 5 sec washing period, 50 nM solutions of a positive control protein (murine IL-21R-H/F), two human proteins related to IL-21R (human IL-2Rβ and human sIL-4R(R&D Systems)), or an unrelated His/FLAG-tagged protein (human IL-13-H/F) were injected over the captured antibodies on the chip. The association and dissociation phases were monitored for 120 and 180 sec, respectively, followed by two 5 μl injections of glycine (pH 1.5) to regenerate a fully active capturing surface. All binding experiments were done at 25° C. in HBS/EP buffer. Blank and buffer effects were subtracted for each sensorgram using double referencing.

human soluble IL-4R = biological target: T4, human soluble IL-4R (human, UniProt P24394 26-232, limits assumed); test: as above
T4 construct: also called human sIL-4R
Procedure: as §1, §2

human IL-13-His/FLAG = biological target: T5, human IL-13-His/FLAG (human, UniProt P35225 35-146, limits assumed); test: as above
T5 construct: Unrelated His/FLAG-tagged control; also called human IL-13-H/F
Procedure: as §1, §2

[5] = biological target: T2, human IL-21R expressed on cells; test: cell-based or functional assay; remark: listed apart in the source

Sequence of murine IL-21R expressed on cells (Q9JHX3 20-529 limits assumed): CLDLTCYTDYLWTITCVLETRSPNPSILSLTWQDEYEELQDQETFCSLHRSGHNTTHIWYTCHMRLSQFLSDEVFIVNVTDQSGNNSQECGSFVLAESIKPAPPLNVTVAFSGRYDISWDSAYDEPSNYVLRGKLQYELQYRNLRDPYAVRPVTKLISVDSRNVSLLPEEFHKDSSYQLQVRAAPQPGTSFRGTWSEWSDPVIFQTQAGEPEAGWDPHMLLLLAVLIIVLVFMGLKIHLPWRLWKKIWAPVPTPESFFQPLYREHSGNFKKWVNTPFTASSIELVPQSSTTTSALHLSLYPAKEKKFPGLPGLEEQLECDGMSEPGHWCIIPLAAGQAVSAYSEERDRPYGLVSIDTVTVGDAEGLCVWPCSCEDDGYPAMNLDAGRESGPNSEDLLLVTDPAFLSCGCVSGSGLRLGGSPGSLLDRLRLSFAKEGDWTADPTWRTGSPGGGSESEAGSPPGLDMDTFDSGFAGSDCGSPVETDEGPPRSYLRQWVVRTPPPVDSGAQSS
T2 sequence (Q9HBE5 20-538 limits assumed): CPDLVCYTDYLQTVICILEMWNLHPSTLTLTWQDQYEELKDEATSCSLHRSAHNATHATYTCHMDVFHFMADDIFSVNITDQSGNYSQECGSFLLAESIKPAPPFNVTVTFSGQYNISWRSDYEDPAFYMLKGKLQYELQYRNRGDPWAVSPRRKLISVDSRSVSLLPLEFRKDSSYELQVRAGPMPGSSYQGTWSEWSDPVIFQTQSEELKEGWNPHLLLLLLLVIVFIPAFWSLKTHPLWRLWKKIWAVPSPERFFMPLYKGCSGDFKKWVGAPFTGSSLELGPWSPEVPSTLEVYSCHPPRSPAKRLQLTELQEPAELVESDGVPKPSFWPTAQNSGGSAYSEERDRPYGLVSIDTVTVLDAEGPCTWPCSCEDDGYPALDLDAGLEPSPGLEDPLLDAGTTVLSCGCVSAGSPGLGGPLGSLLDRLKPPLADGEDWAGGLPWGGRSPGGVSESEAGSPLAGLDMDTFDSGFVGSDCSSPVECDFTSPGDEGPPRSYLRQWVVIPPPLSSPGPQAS
T3 sequence (Q9HBE5 20-232): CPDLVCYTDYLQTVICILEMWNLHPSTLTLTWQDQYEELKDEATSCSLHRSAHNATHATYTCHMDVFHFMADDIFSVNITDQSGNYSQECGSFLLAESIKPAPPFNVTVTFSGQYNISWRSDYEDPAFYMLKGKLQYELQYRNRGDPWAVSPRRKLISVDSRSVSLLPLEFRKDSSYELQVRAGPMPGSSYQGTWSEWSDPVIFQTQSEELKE
T5 sequence (P35225 35-146 limits assumed): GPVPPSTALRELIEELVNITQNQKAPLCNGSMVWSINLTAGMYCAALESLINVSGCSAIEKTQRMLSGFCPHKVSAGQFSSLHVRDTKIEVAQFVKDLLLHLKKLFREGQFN

| Binder | Human IL-21R-BaF3 Proliferation IC50 [1] [nM] | Human IL-21R-TF1 Proliferation IC50 [1] [nM] | Murine IL-21R-BaF3 Proliferation IC50 [2] [nM] | Neutralization of human primary T cell Proliferation IC50 [3] [nM] | Kd [4] [nM] | koff [4] [s⁻¹] | kon [4] [M⁻¹ s⁻¹] | binding result (human IL-2Rβ) | binding result (human soluble IL-4R) | binding result (human IL-13-His/FLAG) | Neutralization of B cell proliferation IC50 [5] [nM] |
| --- | --- | --- | --- | --- | --- | --- | --- | --- | --- | --- | --- |
| parental 18A5 antibody (antibody, V domains shown, also called 18A5 IgG) VH: QVQLQESGPGLVKTSETLSLTCAVSGYSISSGYYWGWIRQPPGKGLEWIGSISHTGNTYYNPPLKSRVTISVDTSKNQFSLKLSSVTAADTAVYYCARGGGISRPEYWGKGTLVTVSS VL: SSELTQDPPVSVALGQTVTLTCQGDSLRTYYASWYQQKSGQAPILLLYGKHKRPSGIPDRFSGSTSGDTASLTITGAQAEDEADYYCNSRDSSGNPHVLFGGGTQLTVL | – | – | – | 1.42 | 4.4 | 0.00134 | 304000 | – | – | – | 1.86 |
| AbO (antibody, human IgG1, V domains shown, CDR3 graft, residue limits derived as for m29; also called VHP/VL16; VHPTM/VL16) VH: QVQLQESGPGLVKPSETLSLTCAVSGYSISSGYYWGWIRQPPGKGLEWIGSISHTGNTYYNPPLKSRVTISVDTSKNQFSLKLSSVTAADTAVYYCARGGGISRPEYWGQGTLVTVSS VL: SSELTQDPAVSVALGQTVRITCQGDSLRTYYASWYQQKPGQAPVLVIYGKHKRPSGIPDRFSGSSSGNTASLTITGAQAEDEADYYCVTRSAKGNPHVLFGGGTQLTVL | 0.52 | 2.91 | 0.065 | 0.06 | – | – | – | no binding (tested: 50 nM) | no binding (tested: 50 nM) | no binding (tested: 50 nM) | – |
| AbS (antibody, V domains shown, CDR3 graft, residue limits derived as for m29; also called VHP/VL6; VHPTM/VL6) VH: QVQLQESGPGLVKPSETLSLTCAVSGYSISSGYYWGWIRQPPGKGLEWIGSISHTGNTYYNPPLKSRVTISVDTSKNQFSLKLSSVTAADTAVYYCARGGGISRPEYWGQGTLVTVSS VL: SSELTQDPAVSVALGQTVRITCQGDSLRTYYASWYQQKPGQAPVLVIYGKHKRPSGIPDRFSGSSSGNTASLTITGAQAEDEADYYCMSRSIWGNPHVLFGGGTQLTVL | 1.53 | 5 | 0.04 | 0.06 | 1.51 | 0.000305 | 202000 | no binding (tested: 50 nM) | no binding (tested: 50 nM) | no binding (tested: 50 nM) | 0.44 |

More lines, in order of falling Kd [4], values ahead:

| Human IL-21R-BaF3 Proliferation IC50 [1] [nM] | Human IL-21R-TF1 Proliferation IC50 [1] [nM] | Murine IL-21R-BaF3 Proliferation IC50 [2] [nM] | Neutralization of human primary T cell Proliferation IC50 [3] [nM] | Kd [4] [nM] | koff [4] [s⁻¹] | kon [4] [M⁻¹ s⁻¹] | binding result (human IL-2Rβ) | binding result (human soluble IL-4R) | binding result (human IL-13-His/FLAG) | Neutralization of B cell proliferation IC50 [5] [nM] | Binder |
| --- | --- | --- | --- | --- | --- | --- | --- | --- | --- | --- | --- |
| 0.75 | 3.48 | 0.03 | 0.02 | 0.436 | 0.000102 | 233000 | no binding (tested: 50 nM) | no binding (tested: 50 nM) | no binding (tested: 50 nM) | – | AbP (antibody, human IgG1, V domains shown, CDR3 graft, residue limits derived as for m29; also called VHP/VL20; VHPTM/VL20) VH: QVQLQESGPGLVKPSETLSLTCAVSGYSISSGYYWGWIRQPPGKGLEWIGSISHTGNTYYNPPLKSRVTISVDTSKNQFSLKLSSVTAADTAVYYCARGGGISRPEYWGQGTLVTVSS VL: SSELTQDPAVSVALGQTVRITCQGDSLRTYYASWYQQKPGQAPVLVIYGKHKRPSGIPDRFSGSSSGNTASLTITGAQAEDEADYYCVSRSAKGNPHVLFGGGTQLTVL |
| 0.87 | 3.94 | 0.302 | 0.04 | 0.394 | 9.76e-05 | 248000 | no binding (tested: 50 nM) | no binding (tested: 50 nM) | no binding (tested: 50 nM) | 0.22 | AbR (antibody, human IgG1, V domains shown, CDR3 graft, residue limits derived as for m29; also called VH3/VL18; VH3DM/VL18) VH: QVQLQESGPGLVKPSETLSLTCAVSGYSISSGYYWGWIRQPPGKGLEWIGSISHTGNTYYNPPLKSRVTISVDTSKNQFSLKLSSVTAADTAVYYCARFMGFGRPEYWGQGTLVTVSS VL: SSELTQDPAVSVALGQTVRITCQGDSLRTYYASWYQQKPGQAPVLVIYGKHKRPSGIPDRFSGSSSGNTASLTITGAQAEDEADYYCVTRSVKGNPHVLFGGGTQLTVL |
| 0.73 | 3.13 | 0.184 | 0.03 | 0.329 | 7.83e-05 | 238000 | no binding (tested: 50 nM) | no binding (tested: 50 nM) | no binding (tested: 50 nM) | 0.13 | AbU (antibody, human IgG1, V domains shown, CDR3 graft, residue limits derived as for m29; also called VHP/VL25; VHPTM/VL25) VH: QVQLQESGPGLVKPSETLSLTCAVSGYSISSGYYWGWIRQPPGKGLEWIGSISHTGNTYYNPPLKSRVTISVDTSKNQFSLKLSSVTAADTAVYYCARGGGISRPEYWGQGTLVTVSS VL: SSELTQDPAVSVALGQTVRITCQGDSLRTYYASWYQQKPGQAPVLVIYGKHKRPSGIPDRFSGSSSGNTASLTITGAQAEDEADYYCTTRSNKGNPHVLFGGGTQLTVL |
| 0.67 | 3.26 | 0.093 | 0.03 | 0.272 | 7.42e-05 | 273000 | no binding (tested: 50 nM) | no binding (tested: 50 nM) | no binding (tested: 50 nM) | 0.14 | AbT (antibody, human IgG1, V domains shown, CDR3 graft, residue limits derived as for m29; also called VHP/VL9; VHPTM/VL9) VH: QVQLQESGPGLVKPSETLSLTCAVSGYSISSGYYWGWIRQPPGKGLEWIGSISHTGNTYYNPPLKSRVTISVDTSKNQFSLKLSSVTAADTAVYYCARGGGISRPEYWGQGTLVTVSS VL: SSELTQDPAVSVALGQTVRITCQGDSLRTYYASWYQQKPGQAPVLVIYGKHKRPSGIPDRFSGSSSGNTASLTITGAQAEDEADYYCVARSNKGNPHVLFGGGTQLTVL |
| 0.68 | 4.62 | 0.153 | 0.08 | 0.213 | 9.34e-05 | – | no binding (tested: 50 nM) | no binding (tested: 50 nM) | no binding (tested: 50 nM) | 0.16 | AbQ (antibody, human IgG1, V domains shown, CDR3 graft, residue limits derived as for m29; also called VH3/VL2; VH3DM/VL2) VH: QVQLQESGPGLVKPSETLSLTCAVSGYSISSGYYWGWIRQPPGKGLEWIGSISHTGNTYYNPPLKSRVTISVDTSKNQFSLKLSSVTAADTAVYYCARFMGFGRPEYWGQGTLVTVSS VL: SSELTQDPAVSVALGQTVRITCQGDSLRTYYASWYQQKPGQAPVLVIYGKHKRPSGIPDRFSGSSSGNTASLTITGAQAEDEADYYCVARSVVGNPHVLFGGGTQLTVL |
